From publication PMC8074105, “Bacillus subtilis PcrA Helicase Removes Trafficking Barriers” (Cells, 2021)

Experiments:
PcrA [1] = target: T1, PcrA (Bacillus subtilis, UniProt O34580 1-739); experiment: EMSA; 2.5 mM ATPgS, 3 mM Mg2+; apparent; unstable complexes; 20 mM Tris-HCl pH 7.5, 50 mM NaCl, 3 mM MgCl2, 4 mM DTT, 0.05 mg/mL BSA, 5% glycerol, 2.5 mM ATPgS, 0.1 nM 32P-labelled nucleic acid, 15 min, 37 C; details: protein: recombinant; tags: His6 removed (TAGZyme); label: 32P
T1 sequence: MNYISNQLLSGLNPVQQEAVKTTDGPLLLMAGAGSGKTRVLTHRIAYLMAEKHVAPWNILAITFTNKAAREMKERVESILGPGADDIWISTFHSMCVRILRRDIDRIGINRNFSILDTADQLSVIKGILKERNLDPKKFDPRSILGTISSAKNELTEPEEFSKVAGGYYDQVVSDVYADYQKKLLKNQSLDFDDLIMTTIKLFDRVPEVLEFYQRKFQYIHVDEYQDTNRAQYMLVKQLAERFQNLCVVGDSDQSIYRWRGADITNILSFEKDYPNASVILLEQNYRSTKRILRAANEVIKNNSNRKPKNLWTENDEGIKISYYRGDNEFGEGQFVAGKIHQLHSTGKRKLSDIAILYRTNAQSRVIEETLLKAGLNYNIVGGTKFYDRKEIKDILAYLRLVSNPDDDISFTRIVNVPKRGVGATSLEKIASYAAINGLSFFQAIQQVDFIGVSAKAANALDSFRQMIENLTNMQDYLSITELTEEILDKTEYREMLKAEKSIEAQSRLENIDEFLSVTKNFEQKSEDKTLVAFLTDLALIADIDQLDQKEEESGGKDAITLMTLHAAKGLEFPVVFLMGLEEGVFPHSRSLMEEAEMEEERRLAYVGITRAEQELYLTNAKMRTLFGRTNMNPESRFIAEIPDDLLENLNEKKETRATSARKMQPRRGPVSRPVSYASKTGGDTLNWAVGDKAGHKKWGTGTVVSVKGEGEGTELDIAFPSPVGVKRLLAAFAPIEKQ

[2] = substrate: Nc1ncnc2c1ncn2[C@@H]1O[C@H](COP(=O)(O)OP(=O)(O)OP(=O)(O)O)[C@@H](O)[C@H]1O; experiment: NADH-coupled (pyruvate kinase / lactate dehydrogenase) spectrophotometric ATPase assay, Michaelis-Menten fit; format: biochemical, Bacillus subtilis; details: 15 nM PcrA, ATP 0.06 to 10 mM, ssDNA-dependent assay (circular pGEM3 Zf(+) ssDNA, 10 µM in nt, inferred from context), 10 mM Mg acetate, 80 mM NaCl, pH 7.5, 37 °C
PcrA [3] = target: T1, PcrA; experiment: EMSA; 2.5 mM ATPgS, 3 mM Mg2+; four complexes; 20 mM Tris-HCl pH 7.5, 50 mM NaCl, 3 mM MgCl2, 4 mM DTT, 0.05 mg/mL BSA, 5% glycerol, 2.5 mM ATPgS, 0.1 nM 32P-labelled nucleic acid, 15 min, 37 C; details: protein: recombinant; tags: His6 removed (TAGZyme); label: 32P

B1: 38-nt RNA (SM44R) (ssRNA)
RNA: GCUCUGAUGCCGCAUAGUUAAGCCAGCCCCGACACCCG
- Kd (PcrA [1]): ~35 nM

B2: PcrA (Bacillus subtilis subsp. subtilis str. 168) (protein)
chain: MNYISNQLLSGLNPVQQEAVKTTDGPLLLMAGAGSGKTRVLTHRIAYLMAEKHVAPWNILAITFTNKAAREMKERVESILGPGADDIWISTFHSMCVRILRRDIDRIGINRNFSILDTADQLSVIKGILKERNLDPKKFDPRSILGTISSAKNELTEPEEFSKVAGGYYDQVVSDVYADYQKKLLKNQSLDFDDLIMTTIKLFDRVPEVLEFYQRKFQYIHVDEYQDTNRAQYMLVKQLAERFQNLCVVGDSDQSIYRWRGADITNILSFEKDYPNASVILLEQNYRSTKRILRAANEVIKNNSNRKPKNLWTENDEGIKISYYRGDNEFGEGQFVAGKIHQLHSTGKRKLSDIAILYRTNAQSRVIEETLLKAGLNYNIVGGTKFYDRKEIKDILAYLRLVSNPDDDISFTRIVNVPKRGVGATSLEKIASYAAINGLSFFQAIQQVDFIGVSAKAANALDSFRQMIENLTNMQDYLSITELTEEILDKTEYREMLKAEKSIEAQSRLENIDEFLSVTKNFEQKSEDKTLVAFLTDLALIADIDQLDQKEEESGGKDAITLMTLHAAKGLEFPVVFLMGLEEGVFPHSRSLMEEAEMEEERRLAYVGITRAEQELYLTNAKMRTLFGRTNMNPESRFIAEIPDDLLENLNEKKETRATSARKMQPRRGPVSRPVSYASKTGGDTLNWAVGDKAGHKKWGTGTVVSVKGEGEGTELDIAFPSPVGVKRLLAAFAPIEKQ
notes: full-length, His6-tagged from plasmid pCB1229 (pQE1) in E. coli M15 (pREP4), His-tag removed with TAGZyme; amounts as monomers
- Km [2]: 1500 ± 300 µM

B3: 38-nt ssDNA (SM44D) (ssDNA)
DNA: GCTCTGATGCCGCATAGTTAAGCCAGCCCCGACACCCG
- binding result (PcrA [3]): binds
